Assay results as given in patent US20230399650.
Substitutions are numbered along the chain they refer to.

Assays:
[1] = tested on: VapBC hetero-octamer, VapB Q12L (VapBL12C, CS14 allele) (Shigella sonnei); test: SPR; conditions: 25 C, 50 mM Tris pH 8.0, 150 mM NaCl; traces not at equilibrium; methods state chip duplex SH167 annealed with SH181 (SH181 printed is operator site 2 sequence)
[2] = tested on: VapBC hetero-octamer, VapB Q12A (VapBA12C) (Shigella sonnei); test: SPR; conditions: 25 C, 50 mM Tris pH 8.0, 150 mM NaCl; approximate
[3] = tested on: T1, VapB^A12 (Shigella sonnei VapB, Q12A)
T1 sequence: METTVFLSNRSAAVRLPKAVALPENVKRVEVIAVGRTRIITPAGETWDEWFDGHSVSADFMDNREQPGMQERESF

[4] = tested on: T2, VapB^Q12 (Shigella sonnei 53G wild-type VapB antitoxin)
T2 sequence: T1 sequence with A12Q

[5] = tested on: T3, VapB^L12 (VapB of Shigella sonnei CS14, Q12L)
T3 sequence: T1 sequence with A12L

Substance | binding signal (fold lower affinity than VapBQ12C) [1] | binding signal (fold lower affinity than VapBQ12C) [2] | degradation of VapB by Lon in the presence of long-chain polyphosphate [3] | degradation of VapB by Lon in the presence of operator DNA or control DNA [3] | degradation of VapB by Lon, in vitro proteolysis with and without ATP, SDS-PAGE [3] | degradation of VapB by Lon, in vitro proteolysis, SDS-PAGE [3] | degradation after 4 hours, in the presence of control DNA [4] | degradation after 4 hours, without DNA [4] | degradation of VapB by Lon in the presence of control DNA [4] | degradation of VapB by Lon in the presence of long-chain polyphosphate [4] | degradation of VapB by Lon in the presence of operator DNA [4] | degradation of VapB by Lon, in vitro proteolysis over four hours, SDS-PAGE [4] | degradation of VapB by Lon, in vitro proteolysis with and without ATP, SDS-PAGE [4] | degradation of VapB by Lon in the presence of long-chain polyphosphate [5] | degradation of VapB by Lon in the presence of operator DNA or control DNA [5] | degradation of VapB by Lon, in vitro proteolysis over four hours, SDS-PAGE [5] | degradation of VapB by Lon, in vitro proteolysis with and without ATP, SDS-PAGE [5]
ATCATAAACGTATATCCCTTTGACATATCCCG (double strand) [vapBC operator site 1, biotinylated for SPR (SH180 printed)] | 4 | 10 | – | – | – | – | – | – | – | – | – | – | – | – | – | – | –
Shigella Lon protease, hexameric (Lon6) | – | – | significantly enhanced Lon degradation of both VapB^L12 and VapB^A12 | neither operator DNA nor control DNA affect Lon degradation of VapB^L12 or VapB^A12 | VapB degradation by Lon protease is ATP dependent | after two hours we observed that VapB^A12 was degraded significantly more than VapB^L12 | 31% vs 55% degradation after 4 hours | 31% vs 55% degradation after 4 hours | significant degradation of VapB^Q12 was observed within two hours | Polyphosphate significantly reduced Lon degradation of VapB^Q12 | virtually no degradation of VapB^Q12 over the course of assays | no significant difference in the degradation of VapB^Q12 and VapB^L12 by Lon protease over the course of assays | VapB degradation by Lon protease is ATP dependent | significantly enhanced Lon degradation of both VapB^L12 and VapB^A12 | neither operator DNA nor control DNA affect Lon degradation of VapB^L12 or VapB^A12 | no significant difference in the degradation of VapB^Q12 and VapB^L12 by Lon protease over the course of assays | VapB degradation by Lon protease is ATP dependent
